Reference: the supplement of paper PMC7125110
± gives the standard error. Variants at the floor of the assay were thinned out.

B1: glmS ribozyme (parent)
chain: AUAAAAGCGCCAGAACUACAGAAAUGUAGUUGACGAGGAGGAGGUUUAUCGAAUUUUCGGCGGAUGCCUCCAAA

Tests used:
Conditions in all cases: with glucosamine-6-phosphate
glucosamine-6-phosphate [1] = variants of: B1; test: self-cleavage kobs at 40 uM GlcN6P; higher = faster cleavage; RNA array
Outline: (§1)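 Barcoded ribozyme variants, transcribed in situ by E. coli RNA polymerase on sequenced MiSeq chips, were followed via a hybridised Cy3 probe at 37 °C. Glucosamine-6-phosphate ranged from 40 μM to 10 mM in HEPES/KCl/Mg(OAc)2 buffer. kobs came from decay fits to per-tile medians, and kcat and KM from weighted Michaelis–Menten fits.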

glucosamine-6-phosphate [2] = variants of: B1; test: self-cleavage kobs at 160 uM GlcN6P; higher = faster cleavage; RNA array
Outline: as §1

glucosamine-6-phosphate [3] = variants of: B1; test: self-cleavage kobs at 640 uM GlcN6P; higher = faster cleavage; RNA array
Outline: as §1

glucosamine-6-phosphate [4] = variants of: B1; test: self-cleavage kobs at 2500 uM GlcN6P; higher = faster cleavage; RNA array
Outline: as §1

glucosamine-6-phosphate [5] = variants of: B1; test: self-cleavage kobs at 10000 uM GlcN6P; higher = faster cleavage; RNA array
Outline: as §1

Variant | self-cleavage kobs at 40 uM GlcN6P (glucosamine-6-phosphate [1]) [s⁻¹] | self-cleavage kobs at 160 uM GlcN6P (glucosamine-6-phosphate [2]) [s⁻¹] | self-cleavage kobs at 640 uM GlcN6P (glucosamine-6-phosphate [3]) [s⁻¹] | self-cleavage kobs at 2500 uM GlcN6P (glucosamine-6-phosphate [4]) [s⁻¹] | self-cleavage kobs at 10000 uM GlcN6P (glucosamine-6-phosphate [5]) [s⁻¹]
AUAAAAGCGCCAGAACUACAGAAAUGUAGUUGACGAGGAGGAGGGUUAUCGAAUUUUCCGCGGAUGCCUCCAAA [U45G G59C] | < 1e-05 | < 1e-05 | < 1e-05 | < 1e-05 | 
AUAAAAGCGCCAGAACUACAGAAAUGUAGUUGACGAGGAGGAGGGUUAUCGCAUCUUCGGCGGAUGCCUCUAAA [U45G A52C U55C C71U] | < 1e-05 |  |  |  | 
AUAAAAGCGCCAGAACUACAGAAAUGUAGUUGACGAGGAGGAGGAUUCUCGAAUUUUUGGCGGAUGCCUCCAAA [U45A A48C C58U] | < 1e-05 |  |  |  | < 1e-05
AUAAAAGCGCCAGAACUACAGAAAUGUAGUUGACGAGGAGGAGGCUUAUCGAAUCUUCGGCGGAUGCCUCCAAA [U45C U55C] | 5.77e-05 ± 1.3e-05 |  |  | 0.00199 ± 0.00054 | 0.00272 ± 0.00037
AUAAAAGCGCCAGAACUACAGAAAUGUAGUUGACGAGGAGGAGGAUUAUCGAAUUUUCGUCGGAUGCGUUCAAA [U45A G60U C68G C70U] | < 1e-05 |  |  |  | 
AUAAAAGCGCCAGAACUACAGAAAUGUAGUUGACGAGGAGGAGUUUUAUCGAAUUUUUGGCGGAUGCCUCUAAA [G44U C58U C71U] | < 1e-05 |  | < 1e-05 | < 1e-05 | < 1e-05
AUAAAAGCGCCAGAACUACAGAAAUGUAGUUGACGAGGAGGAGGGUUAUCGAAUUUUCGGCGGUUGCCUCCAAA [U45G A64U] | < 1e-05 | < 1e-05 |  |  | 9.64e-05 ± 1.8e-05
AUAAAAGCGCCAGAACUACAGAAAUGUAGUUGACGAGGAGGAGGUAUUUCGAAUUUACGUCGGAUGUAUCCAAA [U46A A48U U57A G60U C67U C68A] | < 1e-05 |  |  | < 1e-05 | 
AUAAAAGCGCCAGAACUACAGAAAUGUAGUUGACGAGGAGGAGGAUUAUCGAAUUUUCGGAGGAUGCCUCCAAA [U45A C61A] | < 1e-05 |  | < 1e-05 | < 1e-05 | < 1e-05
AUAAAAGCGCCAGAACUACAGAAAUGUAGUUGACGAGGAGGAGGAUUAUCGAAUAUUCGGCGGGUGCCUCCAAA [U45A U55A A64G] | 0.00112 ± 0.00022 |  | 0.00335 ± 0.0011 | 0.00972 ± 0.0028 | 0.0175 ± 0.0056
AUAAAAGCGCCAGAACUACAGAAAUGUAGUUGACGAGGAGGAGGCUUAUCGAAUUUUCGCCGGAUGCCUCCAAA [U45C G60C] | < 1e-05 | < 1e-05 | < 1e-05 | < 1e-05 | < 1e-05
AUAAAAGCGCCAGAACUACAGAAAUGUAGUUGACGAGGAGGAGGGUUAUCGAAUUUUUGGCGGAUGCCUCCAAA [U45G C58U] | < 1e-05 | < 1e-05 |  |  | 
AUAAAAGCGCCAGAACUACAGAAAUGUAGUUGACGAGGAGGAGGGUUAUCGCAUUUUCGGCGGAUGCCUCCAAA [U45G A52C] | < 1e-05 |  |  |  | 
AUAAAAGCGCCAGAACUACAGAAAUGUAGUUGACGAGGAGGAGGCUUAUCGAAUUUUCGGCGUAUGCCUCCAAA [U45C G63U] | < 1e-05 | < 1e-05 | < 1e-05 | < 1e-05 | < 1e-05
AUAAAAGCGCCAGAACUACAGAAAUGUAGUUGACGAGGAGGAGGGUUUUCGAAUUUUCGGCGGAUGCCUCGAAA [U45G A48U C71G] | < 1e-05 |  |  |  | 
AUAAAAGCGCCAGAACUACAGAAAUGUAGUUGACGAGGAGGAGUUUUAUGGAUUUUUCAGCGGAUGCAUCCAAA [G44U C50G A53U G59A C68A] | < 1e-05 |  |  |  | 
AUAAAAGCGCCAGAACUACAGAAAUGUAGUUGACGAGGAGGAGUUUUAUCCAAUUUUCGGCGGAUGCCUCCAAA [G44U G51C] | < 1e-05 | < 1e-05 | < 1e-05 | < 1e-05 | < 1e-05
AUAAAAGCGCCAGAACUACAGAAAUGUAGUUGACGAGGAGGAGGCUUAUCGAAUUUUCGGCGGAUGCCGCUAAA [U45C U69G C71U] | < 1e-05 |  |  |  | 
AUAAAAGCGCCAGAACUACAGAAAUGUAGUUGACGAGGAGGAGUUUUAUCGAAUUUCCGGCGGAUGCCUCCAAA [G44U U57C] | < 1e-05 |  | < 1e-05 | < 1e-05 | < 1e-05
AUAAAAGCGCCAGAACUACAGAAAUGUAGUUGACGAGGAGGAGUUUUAUCGAAUUUUGGGCGGAUGCUUCCAAA [G44U C58G C68U] | < 1e-05 | < 1e-05 | < 1e-05 | < 1e-05 | < 1e-05
AUAAAAGCGCCAGAACUACAGAAAUGUAGUUGACGAGGAGGAGGGUUAUUGAUUUUUCGGCGGAUGCCUCCAAA [U45G C50U A53U] | < 1e-05 |  |  |  | 
AUAAAAGCGCCAGAACUACAGAAAUGUAGUUGACGAGGAGGAGGCUUAUGGAAUUUUCGGCGGAUGCCUCCAAA [U45C C50G] | < 1e-05 | < 1e-05 | < 1e-05 | < 1e-05 | < 1e-05
AUAAAAGCGCCAGAACUACAGAAAUGUAGUUGACGAGGAGGAGGGUUAUCGAAUUUUCGGCGUAUGCCUCCAAA [U45G G63U] | < 1e-05 | < 1e-05 | < 1e-05 | < 1e-05 | < 1e-05
AUAAAAGCGCCAGAACUACAGAAAUGUAGUUGACGAGGAGGAGGAUUAUCGAAUUUUCGGCGGAUGCCUUCAAA [U45A C70U] | 0.00112 ± 0.00012 | 0.00187 ± 0.00068 | 0.00199 ± 0.00047 | 0.0203 ± 0.0092 | 0.0102 ± 0.0018
